Source: patent publication US20170298119A1 (VISTERRA, published 2017)
Where two headings read alike, the source gives them in different places.

Tests used:
recombinant FcRn protein = target: T1, recombinant FcRn protein (Homo sapiens (Human), UniProt P55899 24-297; P61769 21-119); assay: BLI (Octet): antibody on anti-CH1 biosensors, recombinant FcRn at pH 6.0; fold change against wild type Motavizumab
T1 construct: also called neonatal Fc receptor; copies: 1 + 1

[1] = target: T2, wild type ZIKV EDIII displayed on yeast (yeast; Zika virus); assay: yeast display of wild type ZIKV EDIII, flow cytometry (Alexa-647 MFI) over hybridoma supernatant dilutions; KD from the 50% maximal binding dilution and the Octet-quantified supernatant concentration
T2 construct: also called WT EDIII
T2 sequence (P32781 19-87): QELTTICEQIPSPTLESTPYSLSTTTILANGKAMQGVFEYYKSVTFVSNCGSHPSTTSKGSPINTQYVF

[2] = target: T2, wild type ZIKV EDIII displayed on yeast
DENV EDIII protein = target: T3, DENV EDIII protein (dengue virus, UniProt P17763 573-679); assay: ELISA of Example 7 on coated DENV EDIII, where p-1318 says 'minimal cross-reactivity with the DENV EDIII protein'
T3 construct: domain: EDIII; also called EDIII-DV1; dengue virus E protein domain III
T3 sequence (P17763 573-679 limits assumed): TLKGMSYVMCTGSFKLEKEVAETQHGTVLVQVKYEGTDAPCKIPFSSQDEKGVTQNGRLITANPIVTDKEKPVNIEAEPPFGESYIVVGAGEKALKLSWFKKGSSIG

T1 sequence (P55899 24-297 limits assumed, chain 1 of 2): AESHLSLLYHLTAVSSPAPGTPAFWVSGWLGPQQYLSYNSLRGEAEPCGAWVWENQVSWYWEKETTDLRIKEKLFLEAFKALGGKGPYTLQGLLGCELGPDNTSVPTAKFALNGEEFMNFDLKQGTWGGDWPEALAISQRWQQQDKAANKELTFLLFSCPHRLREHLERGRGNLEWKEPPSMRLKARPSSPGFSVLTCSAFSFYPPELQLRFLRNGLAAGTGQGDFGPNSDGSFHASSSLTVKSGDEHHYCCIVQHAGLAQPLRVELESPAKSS
T1 sequence (P61769 21-119 limits assumed, chain 2 of 2): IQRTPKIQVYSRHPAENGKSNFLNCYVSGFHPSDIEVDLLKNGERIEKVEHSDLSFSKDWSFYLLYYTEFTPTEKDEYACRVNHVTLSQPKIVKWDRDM

Row | Binder | Kd (fold increase) (recombinant FcRn protein) | koff (fold decrease) (recombinant FcRn protein) | kon (fold increase) (recombinant FcRn protein) | Kd [1] | Kd [2] | binding result (DENV EDIII protein)
1 | FcMut186 (antibody) ASTKGPSVFPLAPSSKSTSGGTAALGCLVKDYFPEPVTVSWNSGALTSGVHTFPAVLQSSGLYSLSSVVTVPSSSLGTQTYICNVNHKPSNTKVDKKVEPKSCDKTHTCPPCPAPELLGGPSVFLFPPKPKDTLMISRDPEVTCVVVDVSHEDPEVKFNWYVDGVEVHNAKTKPREEQYNSTYRVVSVLRVLHVDWLNGKEYKCKVSNKALPAPIEKTISKAKGQPREPQVYTLPPSRDELTKNQVSLTCLVKGFYPSDIVVEWESNGQPENNYKTTPPVLDSDGSFFLYSKLTVDKSRWQQGNVFSCSVMHEALHNHYTQKSLSLSPGK | 10.3 fold | 3.5 fold | 2.7 fold | – | – | –
2 | FcMut171 (antibody) ASTKGPSVFPLAPSSKSTSGGTAALGCLVKDYFPEPVTVSWNSGALTSGVHTFPAVLQSSGLYSLSSVVTVPSSSLGTQTYICNVNHKPSNTKVDKKVEPKSCDKTHTCPPCPAPELLGGPSVFLFPPKPKDTLMISRDPEVTCVVVDVSHEDPEVKFNWYVDGVEVHDAKTKPREEQYNSTYRVVSVLRVLHVDWLNGKEYKCKVSNKALPAPIEKTISKAKGQPREPQVYTLPPSRDELTKNQVSLTCLVKGFYPSDIAVEWESNGQPENNYKTTPPVLDSDGSFFLYSKLTVDKSRWQQGNVFSCSVMHEALHNHYTQKSLSLSPGK | 8.2 fold | 3.5 fold | 2 fold | – | – | –
3 | FcMut229 (antibody) ASTKGPSVFPLAPSSKSTSGGTAALGCLVKDYFPEPVTVSWNSGALTSGVHTFPAVLQSSGLYSLSSVVTVPSSSLGTQTYICNVNHKPSNTKVDKKVEPKSCDKTHTCPPCPAPELLGGPSVFLFPPKPKDTLMISRDPEVTCVVVDVSHEDPEVKFNWYVDGVEVDNAKTKPREEQYNSTYRVVSVLRVLHVDWLNGKEYKCKVSNKALPAPIEKTISKAKGQPREPQVYTLPPSRDELTKNQVSLTCLVKGFYPSDIVVEWESNGQPENNYKTTPPVLDSDGSFFLYSKLTVDKSRWQQGNVFSCSVMHEALHNHYTQKSLSLSPGK | 5.6 fold | 4.3 fold | 1.1 fold | – | – | –
4 | ZV-67 (antibody, V domains shown) VH: QVQLQQSGTGLARPGASVKLSCKASGYTFTSYGISWVTQRAGQGLEWIGVIYPRSGNTYYNEKFRGKATLTADKSSSSAYMELRGLTAEDSAVYFCARENYGSVYWGQGTTLTVSS VL: DIVMTQSQKFMSTSVGDRVSITCKASQNVGTAVAWYQQKPGQSPKLLIYSASNRYTGVPDRFTGSGSGTDFTLTISNMQSEDLADYFCQQFSSYPYTFGGGTKLEIK | – | – | – | 0.65 nM | – | –
5 | ZV-54 (antibody, V domains shown, also called ZWT; Rec54) VH: QVQLQQSGVGLARPGTSVKLSCKASGYSFTTYGISWVTQRPGQGLEWIGVIYPRSNNTYYNERFRGKATLTADKSSSSAYLELRGLTAEDSAVYFCARENYGSVYWGQGTTLTVSS VL: DIVMTQSQKFMSTSVGDRVTITCKASQSVGTAVAWYHQKPGQSPKLLIYSASNRYTGVPDRFTGSGSGTDFTLTITYMQSEDLADYFCQQFSNYPFTFGGGTKLEIK | – | – | – | – | 0.74 nM | no binding
